From article PMC8551067 (Biochemistry, 2021)
Where a chain is given by its changes, count along the chain named. Names and notes keep the numbering of the source.

B1: PvCPS (full-length copalyl diphosphate synthase) (Talaromyces verruculosus; H786A) (protein)
chain: MSPMDLQESAAALVRQLGERVEDRRGFGFMSPAIYDTAWVSMISKTIDDQKTWLFAECFQYILSHQLEDGGWAMYASEIDAILNTSASLLSLKRHLSNPYQITSITQEDLSARINRAQNALQKLLNEWNVDSTLHVGFEILVPALLRYLEDEGIAFAFSGRERLLEIEKQKLSKFKAQYLYLPIKVTALHSLEAFIGAIEFDKVSHHKVSGAFMASPSSTAAYMMHATQWDDECEDYLRHVIAHASGKGSGGVPSAFPSTIFESVWPLSTLLKVGYDLNSAPFIEKIRSYLHDAYIAEKGILGFTPFVGADADDTATTILVLNLLNQPVSVDAMLKEFEEEHHFKTYSQERNPSFSANCNVLLALLYSQEPSLYSAQIEKAIRFLYKQFTDSEMDVRDKWNLSPYYSWMLMTQAITRLTTLQKTSKLSTLRDDSISKGLISLLFRIASTVVKDQKPGGSWGTRASKEETAYAVLILTYAFYLDEVTESLRHDIKIAIENGCSFLSERTMQSDSEWLWVEKVTYKSEVLSEAYILAALKRAADLPDENAEAAPVINGISTNGFEHTDRINGKLKVNGTNGTNGSHETNGINGTHEIEQINGVNGTNGHSDVPHDTNGWVEEPTAINETNGHYVNGTNHETPLTNGISNGDSVSVHTDHSDSYYQRSDWTADEEQILLGPFDYLESLPGKNMRSQLIQSFNTWLKVPTESLDVIIKVISMLHTASLLIDDIQDQSILRRGQPVAHSIFGTAQAMNSGNYVYFLALREVQKLQNPKAISIYVDSLIDLARGQGMELFWRDSLMCPTEEQYLDMVANKTGGLFCLAIQLMQAEATIQVDFIPLVRLLGIIFQICDDYLNLKSTAYTDNKGLCEDLTEGKFSFPIIHSIRSNPGNRQLINILKQKPREDDIKRYALSYMESTNSFEYTRGVVRKLKTEAIDTIQGLEKHGLEENIGIRKILARMSLEL
B2: PvCPS (full-length copalyl diphosphate synthase) (Talaromyces verruculosus; S723T) (protein)
chain: B1 chain with S723T, A786H
B3: PvCPS (full-length copalyl diphosphate synthase) (Talaromyces verruculosus; F760A) (protein)
chain: B1 chain with F760A, A786H
B4: PvCPS (full-length copalyl diphosphate synthase) (Talaromyces verruculosus; S723F) (protein)
chain: B1 chain with S723F, A786H

Columns and labels:
[1] = biological target: PvCPS (full-length copalyl diphosphate synthase) (Talaromyces verruculosus, UniProt A0A348FUE1, S723T); conditions: substrate inhibition constant; 1 mM DMAPP, 1 mM MgCl2, pH 7.5
[2] = biological target: S723F-PvCPS-α (prenyltransferase α domain of copalyl diphosphate synthase from Penicillium verruculosum, S723F variant) (Penicillium verruculosum); test: crystal structure
purified protein = substrate: C=C(C)CCO[P@@](=O)(O)OP(=O)(O)O; test: purified protein; conditions: prenyltransferase activity, 1 mM DMAPP, 1 mM MgCl2, pH 7.5

Sequence of PvCPS (full-length copalyl diphosphate synthase) (A0A348FUE1 whole entry S723T): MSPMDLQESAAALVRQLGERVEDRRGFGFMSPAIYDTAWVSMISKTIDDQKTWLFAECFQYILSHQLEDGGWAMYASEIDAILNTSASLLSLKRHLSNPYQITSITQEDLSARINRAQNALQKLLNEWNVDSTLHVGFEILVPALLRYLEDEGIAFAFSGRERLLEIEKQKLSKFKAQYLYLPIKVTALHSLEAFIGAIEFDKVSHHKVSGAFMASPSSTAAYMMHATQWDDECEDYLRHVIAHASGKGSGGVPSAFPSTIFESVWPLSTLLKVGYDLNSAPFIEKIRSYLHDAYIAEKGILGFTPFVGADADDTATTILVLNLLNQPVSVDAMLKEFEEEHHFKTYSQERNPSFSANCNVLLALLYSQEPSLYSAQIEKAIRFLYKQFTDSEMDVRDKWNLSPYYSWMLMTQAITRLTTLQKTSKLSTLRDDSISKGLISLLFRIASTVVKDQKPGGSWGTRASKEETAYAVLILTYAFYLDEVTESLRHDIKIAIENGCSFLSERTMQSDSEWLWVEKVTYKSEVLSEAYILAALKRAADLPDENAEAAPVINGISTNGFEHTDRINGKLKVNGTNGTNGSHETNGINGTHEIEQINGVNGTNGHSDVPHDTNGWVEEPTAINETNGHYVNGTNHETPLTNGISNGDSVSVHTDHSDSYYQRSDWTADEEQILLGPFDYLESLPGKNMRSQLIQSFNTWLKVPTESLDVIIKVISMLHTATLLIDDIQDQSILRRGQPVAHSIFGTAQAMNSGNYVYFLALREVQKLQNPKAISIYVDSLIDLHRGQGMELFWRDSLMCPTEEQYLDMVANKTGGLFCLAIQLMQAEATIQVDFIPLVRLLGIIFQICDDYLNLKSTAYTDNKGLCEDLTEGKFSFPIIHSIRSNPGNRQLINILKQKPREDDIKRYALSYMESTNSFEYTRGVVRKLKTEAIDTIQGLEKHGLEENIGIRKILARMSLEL

Molecule	S723T [1] [µM]	stoichiometry N [2]	Km (purified protein) [µM]	kcat (purified protein) [s⁻¹]	kcat/Km (purified protein) [M⁻¹ s⁻¹]
C=C(C)CCOP(=O)(O)OP(=O)(O)O [isopentenyl diphosphate]	700 ± 100	–	–	–	–
S723F-PvCPS-α (prenyltransferase α domain of copalyl diphosphate synthase from Penicillium verruculosum, S723F variant) (domain or fragment)	–	6	–	–	–
B1	–	–	160 ± 10	0.027	170
B2	–	–	36 ± 3	0.051	1400
B3	–	–	38 ± 1	0.0279	740
B4	–	–	50 ± 10	0.11	2200
